Results taken from US20250146022A1, “STABILISING THE HUMAN SPINDLE BY KIFC1/HSET” (MAX-PLANCK-GESELLSCHAFT ZUR FOERDERUNG DER WISSENSCHAFTEN …, priority 2021, published 2025).

B1: wild-type HSET: Wild-type HSET re-expressed from microinjected mClover3-HSET mRNA in KIFC1/HSET-depleted aMTOC-free mouse oocytes (protein)
chain: MDPQRSPLLEVKGNIELKRPLIKAPSQLPLSGSRLKRRPDQMEDGLEPEKKRTRGLGATTKITTSHPRVPSLTTVPQTQGQTTAQKVSKKTGPRCSTAIATGLKNQKPVPAVPVQKSGTSGVPPMAGGKKPSKRPAWDLKGQLCDLNAELKRCRERTQTLDQENQQLQDQLRDAQQQVKALGTERTTLEGHLAKVQAQAEQGQQELKNLRACVLELEERLSTQEGLVQELQKKQVELQEERRGLMSQLEEKERRLQTSEAALSSSQAEVASLRQETVAQAALLTEREERLHGLEMERRRLHNQLQELKGNIRVFCRVRPVLPGEPTPPPGLLLFPSGPGGPSDPPTRLSLSRSDERRGTLSGAPAPPTRHDFSFDRVFPPGSGQDEVFEEIAMLVQSALDGYPVCIFAYGQTGSGKTFTMEGGPGGDPQLEGLIPRALRHLFSVAQELSGQGWTYSFVASYVEIYNETVRDLLATGTRKGQGGECEIRRAGPGSEELTVTNARYVPVSCEKEVDALLHLARQNRAVARTAQNERSSRSHSVFQLQISGEHSSRGLQCGAPLSLVDLAGSERLDPGLALGPGERERLRETQAINSSLSTLGLVIMALSNKESHVPYRNSKLTYLLQNSLGGSAKMLMFVNISPLEENVSESLNSLRFASKVNQCVIGTAQANRK
modifications: left off: large carriers
notes: Wild-type HSET re-expressed from microinjected mClover3-HSET mRNA in KIFC1/HSET-depleted aMTOC-free mouse oocytes

Legend:
[1] = tested on: mouse oocytes; experiment: AURA inhibition in mouse oocytes, NUMA enrichment at spindle poles; type: cell-based; conditions: constitutive treatment, 500 nM; data not shown
Description: aMTOCs enrich several regulatory kinases at the spindle poles in mouse oocytes (26). The inventors considered that AURA, which is an essential kinase for aMTOC functions (43, 44) and can phosphorylate NUMA (45), negatively regulates NUMA enrichment at microtubule minus-ends in mouse oocytes. […] To confirm that NUMA enrichment is regulated by AURA-dependent phosphorylation, the inventors depleted endogenous NUMA by follicle RNAi (39) and re-expressed NUMA with mutations at the AURA phosphorylation site S1969. […] Together, the inventors infer that AURA phosphorylation negatively regulates NUMA enrichment at microtubule minus-ends in mouse oocytes. All drugs were prepared in DMSO (Sigma-Aldrich) as 1000× stocks. […] Specific parameters used were: 0.1 (for microtubule packing index) or 1.0 (for SD of fluorescence intensity within spindle isosurface) μm for smoothing size, no background subtraction, 500-750 and 1000-1750 μm^3 for minimum and maximum expected total volume of surface object, respectively. SD of fluorescence intensity, volume and volume of the object-oriented minimum bounding box for the spindle isosurface were exported into Excel. Microtubule packing index was calculated by dividing the volume of spindle isosurface by the volume of the object-oriented minimum bounding box. […] Mean fluorescence intensity and volume of isosurfaces were exported into Excel. […]

[2] = tested on: KIFC1/HSET-depleted aMTOC-free mouse oocytes; experiment: Rescue of spindle polarity in KIFC1/HSET-depleted aMTOC-free mouse oocytes (human oocyte mimics); type: cell-based
Description: This domain, together with the conserved, microtubule-binding motor domain, allows KIFC1/HSET to organize microtubules via crosslinking and/or sliding (86). To investigate the requirement of different domains in KIFC1/HSET, the inventors expressed a series of truncation mutants in aMTOC-free mouse oocytes (FIG. 7K). […] To examine whether the motor activity is dispensable for the function of KIFC1/HSET in aMTOC-free mouse oocytes, the inventors depleted endogenous KIFC1/HSET by follicle RNAi and restored expression with wild-type HSET or with HSET(N593K), which crosslinks microtubules but cannot slide (87). […] Together, the inventors infer that the appropriate level of KIFC1/HSET's crosslinking and sliding activities are required for proper bipolar spindle assembly in the absence of aMTOCs.
Mouse follicles were microinjected with 3.5 pl of siRNAs at a needle concentration of 2 μM as previously described (11). For rescue experiments, in vitro grown oocytes were microinjected with 3.5 pl of mRNAs. mClover3-HSET mRNA was microinjected at a needle concentration of 275 ng/μl, mClover3-HSET(N593K) mRNA at 275 ng/μl, mClover3-NUMA(S1955D) mRNA at 400 ng/μl, mClover3-NUMA(S1955A) mRNA at 400 ng/μl, mClover3-NUMA(SpM-4A) mRNA at 400 ng/μl, mClover3-NUMA(ΔMTBD1) mRNA at 400 ng/μl and mClover3-NUMA(ΔMTBD2) mRNA at 400 ng/μl. Oocytes were allowed to express the mRNAs for 3-4 h before release.
To obtain mouse MI spindles, oocytes were incubated at 37° C. for around 7 h after released into dbcAMP-free medium. To obtain porcine and bovine MI spindles, oocytes were incubated at 39° C./5% CO2 for around 11 and 12 h, respectively, after released into RO-3306-free medium. To obtain human MI spindles, oocytes were incubated at 37° C. for around 14 and 15 h after NEBD. None of the oocytes used for immunofluorescence analyses was subjected to live imaging before fixation.
Time-lapse movies of live mouse, bovine and porcine oocytes, and fixed human and mouse spindles were analyzed in 3D using Imaris (Bitplane). To determine the stages of meiosis and to score for spindle instability, the timing of meiotic progression was quantified relative to the timing of NEBD. NEBD was defined as the time point when the sharp boundary between the nucleus and cytoplasm disappeared in the differential interference contrast image (for mouse oocytes) or when the nucleus started collapsing in the H2B channel (for bovine and porcine oocytes). Spindle poles were defined as regions of MAP4 or MAP4-MTBD or α-tubulin intensity that prominently protruded from the main microtubule mass. In FIG. 1D, oocytes with bipolar spindle, in which ends of all microtubules converged at the poles, were scored as having focused poles. […] For mouse oocytes, unfocused poles were further classified into mildly unfocused poles (with partially separated microtubule ends) and severely unfocused poles (with fully separated microtubule ends). In FIG. 4D, bovine and porcine oocytes, in which the spindle maintained a barrel-shaped bipolar morphology and a detectable spindle axis, were scored as having stable spindle poles. Oocytes, in which the spindle lost their initial bipolarity and underwent dynamic remodeling of the pole(s) were scored as having unstable spindle poles. […] Oocytes, in which the spindle had more than two poles, were scored as having multipolar spindle. In FIG. 1H, mouse oocytes, in which the spindle had two well-defined poles, were scored as having bipolar spindle. Mouse oocytes, in which the spindle had two poorly defined poles, were scored as having apolar/round spindle. Mouse oocytes, in which the spindle had more than two poles, were scored as having multipolar spindle. […] Mouse oocytes, in which the spindle lost its barrel shape but contains several weakly associated microtubule bundles, were scored as having disorganized spindle.

Row | Molecule | NUMA enrichment at the spindle poles [1] | HSET to α-tubulin intensity ratio, more HSET loaded onto spindles with poorly focused poles ([2]; bipolar MI spindles rescued with wild-type HSET, FIG. 3I) | spindle polarity (manual scoring) ([2]; endogenous KIFC1/HSET depleted by follicle RNAi, expression restored from mRNA, MI oocytes, FIGS. 3, G and H) | oocytes with a bipolar spindle but poorly focused poles that lacked NUMA ([2]; oocytes rescued with wild-type HSET, FIG. 3G)
1 | COc1cc(Nc2ncc3c(n2)-c2ccc(Cl)cc2C(c2c(F)cccc2OC)=NC3)ccc1C(=O)O [MLN8237] | increased NUMA enrichment at the spindle poles | – | – | –
2 | B1 | – | ~2 fold | assembled a bipolar spindle | around 25%
